Measured values taken from article PMC10373542 (Journal of Virology, 2023).

B1: ION-300 monoclonal antibody (antibody, V domains shown)
VH: QVQLVQSGAEVKKPGESLKISCKGSGYSFTSYWIGWVRQMPGKGLEWMGIIYPGDSDTRYSPSFQGQVTISADKSISTAYLQWSSLKASDTAMYYCARHPSPYYYGSGSYSGGFDYWGQGTLVTVSS
VL: DIVMTQSPGTLSLSPGERATLSCRASQSVSSSYLAWYQQKPGQAPRLLIYGASTRATGIPARFSGSGSGTEFTLTISSLQSEDFAVYYCQQYDNWPLMHTFGQGTKLEIK
B2: WRAIR-2057 monoclonal antibody (antibody, V domains shown)
VH: EVQLVQSGAEVKKPGESLKISCKGSGYSFISYWIAWVRQMPGKGLEWMGIIYPGDSDTTYSPSFQGQVTISADKSISTAYLQWSSLKASDTAIYYCARLLYYSDSSPLDSWGQGTLVTVSS
VL: DIQMTQSPSSLSASVGDRVTITCRASQSISTYLNWYQQKPGKAPNLLIYAASSLQSGVPSRFSGSGSGTDFTLTISSLQPEDFATYYCQQSHSTPRTFGPGTKVDIK
B3: 7D6 monoclonal antibody (antibody, V domains shown)
VH: EVQLQQSGAELVRPGASVKLSCTASGFNIKDTYIHWVKQRPEQGLEWIGRIDPGDGDTEYDPSFQGKATITADTSSNTAYLELSSLTSEDTAVYYCTRFYDYVDYGMDYWGQGTSVTVSS
VL: DIQMTQSPASLSASVGETVTITCRASGNIHNYLAWYQQKQGKSPQLLVYNAKTLADGVPSRFSGSGSGTQYSLKINSLQPEDFGSYYCQHFWSTPPWTFGGGTKLEVK
B4: N-612-056 monoclonal antibody (antibody, V domains shown)
VH: not shown
VL: DIQMTQSPSSLSASVGDRVTITCQASQDISNYLNWYQQKPGKAPKLLIYDASNLETGVPSRFSGSGSGTDFTFTISSLQPEDIATYYCQQDAGTPLTFGQGTKVEIK
B5: FD20 monoclonal antibody (antibody, V domains shown)
VH: QVQLQQSGAEVKKPGSSVKVSCKASGGTFSSYAFSWVRQAPGQGLEWMGRIIPILGIANYAQKFQGRVTITADISTSTAYMALSSLRSEDTAVYYCAKVEVNIGMDDYYYYYGMDVWGQGTTVTVSS
VL: not shown
B6: 6D6 monoclonal antibody (antibody, V domains shown)
VH: EVQLQQSGAELVKPGASVKLSCTTSGFNIIDTYMHWVKQRPEEGLEWIGGIDPVNGNSEYDPKFQDKATITADTSSNTAYLHLSRLTSEDTAVYYCASAHYYGSSSSFPYWGQGTDLVTVS
VL: DIVMTQSQKFMSTSVGDRVSVTCKASQNVGTHVAWYQQKPGQSPKALIYSASYRYSGVPDRFTGSGVGTDFTLTITNVQSEDLAEYFCQQYNSYFTFGSGTKLEIK
B7: COVOX-45 monoclonal antibody (antibody, V domains shown)
VH: QVQLVESGGGVVQPGRSLRLSCAASGFTFSTYAMHWVRQAPGKGLEWVAVLSYDGSNKYYADSVKGRFTISRDNSKNTLYLQMNSLRAEDTAVYYCAKGGSYAYYYYMDVWGKGTTVTVSS
VL: not shown
B8: WRAIR-2134 monoclonal antibody (antibody, V domains shown)
VH: EVQLVESGGGVVQPGRSLRLSCAASGFIFSSYGMYWVRQAPGKGLEWVAVIWYDGSNKYYADSVKGRFTISRDNSKNTLYLQMNSLRAEDTAVYYCARDLSSSSGWDDYYYYYGMDVWGQGTTVTVSS
VL: not shown
B9: X17 monoclonal antibody (antibody, V domains shown)
VH: QVQLQQSGAELARPGASVKLSCKASGYTFTFYWMQWLKQRPGQGLEWIGAIYPGDGDTRYTQRFKDKATLTADKSSSTAYIQLSSLASEDSAVYYCAGGEYDNYGFDYWGQGTTLTVSS
VL: DIQMTQTTSSLSASLGDRVTISCRASQDISNYLNWYQQKPDGTVKLLIYYTSRLHSGVPSRFSGSGSGTDYSLTISNLEQEDIATYFCQQGTTLPYTFGGGTKLEIK
B10: S2H97 monoclonal antibody (antibody, V domains shown)
VH: QVRLVQSGAEVKKSGESLKISCKGSGYSFTSYWIGWVRQMPGKGLEWMGIIYPGDSDTRYSPSFQGQVTISADKSISTVYLQWSSLKASDTAMYYCARQWSHYTYDYYYWGQGTLVTISS
VL: QSVLTQPASVSGSPGQSITISCTGISSDVGGYNSVSWYQQHPGKAPKLMIYDVTNRPSGVSNRFSGSKSGNTASLTISGLQAEDEADYYCSSYTSSSTPPYVFGTGTKVSVL
B11: Walter Reed Army Institute of Research 2063 (WRAIR-2063) monoclonal antibody, human IgG1 (antibody, V domains shown)
VH: EVQLVESGGGVVQPGRSLRLSCAASGFTFSSYGMHWVRQAPGKGLEWVAVIWYDGSNKYYADSVKGRFTISRDNSKNTLYLQMNSLRAEDTAVYYCARGPLGSNYFNYDAFDIWGQGTMVTVSS
VL: DVVMTQSPLSLPVTLGQPASISCRSSQSLEYSDGNTYLNWFQQRPGQSPRRLIYKVSKRDSGVPDRFSGSGSGSDFTLKISRVEAEDVGVYYCMQGTHWPLTFGGGTKVEIK

These binders were tested against T1, SARS-CoV-2 WA-1 spike receptor binding domain (RBD) (SARS-CoV-2 WA-1 (S identical to …, UniProt P0DTC2)) (assay: BLI).

B1 was tested. Which “fold higher rate of dissociation (koff) than with WRAIR-2063” value (from here on “fold higher rate of dissociation”) did it give?
The value was about 10 fold.

Which “fold higher rate of dissociation” value does the source give for B2 here?
Its value is about 10 fold.

Which “fold higher rate of dissociation” value does the source give for B3 here?
Its value is about 10 fold.

Which “fold higher rate of dissociation” value does the source give for B4 here?
The value was about 10 fold.

With B5 as the binder, how does the “fold higher rate of dissociation” value read?
Its value is about 10 fold.

How did the “fold higher rate of dissociation” value turn out when B6 was run?
Its value is about 10 fold.

With B7 as the binder, how does the “fold higher rate of dissociation” value read?
The value was about 10 fold.

B8 was tested. Which “fold higher rate of dissociation” value did it give?
Its value is about 10 fold.

For B9, which “fold higher rate of dissociation” value is on record?
Its value is about 10 fold.

Target: T1, SARS-CoV-2 WA-1 spike receptor binding …
Experiment: BLI
Remark: another data set of the same source

With B1 as the binder, how does the Kd read?
Its Kd is 3.65 nM.

For B2, which Kd is on record?
Its Kd is 6.3 nM.

With B3 as the binder, how does the Kd read?
Its Kd is 3.41 nM.

Which Kd does the source give for B10 here?
Its Kd is 0.9 nM.

B4 was tested. Which Kd did it give?
Its Kd is 6.31 nM.

With B5 as the binder, how does the Kd read?
The Kd was 3.07 nM.

With B6 as the binder, how does the Kd read?
The Kd was 3.62 nM.

Which Kd does the source give for B7 here?
The Kd was 4.43 nM.

With B8 as the binder, how does the Kd read?
The Kd was 4.26 nM.

For B9, which Kd is on record?
The Kd was 4.72 nM.

These binders were tested against T1, SARS-CoV-2 WA-1 spike receptor binding … (assay: cell-based or functional assay).

Which “IC50 of neutralization of WA-1 pseudotyped virus on HEK293 cells expressing ACE2” value (shortened to “IC50”) does the source give for B1 here?
The value was 0.99 µg/mL.

For B2, which “IC50” value is on record?
The value was 1.85 µg/mL.

For B3, which “IC50” value is on record?
Its value is 0.33 µg/mL.

How did the “IC50” value turn out when B10 was run?
The value was 0.31 µg/mL.

For B4, which “IC50” value is on record?
The value was 4.47 µg/mL.

Which “IC50” value does the source give for B5 here?
Its value is 0.6 µg/mL.

B6 was tested. Which “IC50” value did it give?
The value was 1.37 µg/mL.

For B7, which “IC50” value is on record?
Its value is 0.32 µg/mL.

How did the “IC50” value turn out when B8 was run?
Its value is 18.6 µg/mL.

How did the “IC50” value turn out when B11 was run?
Its value is 0.45 µg/mL.

How did the “IC50” value turn out when B9 was run?
Its value is 2.27 µg/mL.
